Experiment [1] addresses homomeric GluA2Q_(flip) E658K AMPA receptor (rat) (UniProt P19491).
Experiment [2] deals with homomeric GluA2Q_(flip) AMPA receptor, wild type (rat) (UniProt P19491).
Experiment [3] concerns the target GluA1/GluA2(R) AMPA receptor heteromer, wild type (rat) (UniProt P19490).
In experiment [4] the target is GluA1 E651K/GluA2(R) E658K AMPA receptor heteromer (rat) (UniProt P19490).
Experiment [5] concerns the target GluA1/GluA2(R) E658K AMPA receptor heteromer (rat) (UniProt P19490).
Experiment [6] deals with GluA1 E651K/GluA2(R) AMPA receptor heteromer (rat) (UniProt P19490).
The target in experiment [7] is GluA tetramers (sum of all co-purified GluA1-4 proteins divided by four) (rat (endogenous in rat brain)). The experiment is described as follows: affinity purification with mass spectrometry; multi-epitope AP-MS: three polyclonal anti-GSG1L antibodies on protein A Dynabeads, 2 h; membranes of adult (P59) rat brain solubilised in CL-47; GSG1L KO rats as negative control; minimum tnR of 0.25 as indicator of specific interaction.

Take “mouse GSG1L (co-expressed, +GSG1L) (from UniProt D3Z7H4 1-322) (natural protein)”: the single time constant of recovery from desensitization of GluA2 E658K co-expressed with GSG1L (the mutation eliminated the ability of GSG1L to slow recovery) in experiment [1] is 48 ms. Besides, in experiment [2], the fast time constant of recovery from desensitization (τ (recovery), two-pulse protocol, 10 mM L-Glu, outside-out patches of HEK293T/17 cells co-expressing GluA2 and GSG1L) came out at 37.5 ms; the slow time constant of recovery from desensitization (τ (recovery), two-pulse protocol, 10 mM L-Glu, outside-out patches of HEK293T/17 cells co-expressing GluA2 and GSG1L) worked out at 322 ms. Besides, in experiment [3], the fast time constant of recovery from desensitization of GluA1/A2 heteromers co-expressed with GSG1L was 23.7 ms and the slow time constant of recovery from desensitization of GluA1/A2 heteromers co-expressed with GSG1L was 548 ms. Moreover, the single time constant of recovery from desensitization of heteromers with EK on both GluA1 and GluA2, co-expressed with GSG1L in experiment [4] stood at 130 ms. Moreover, in experiment [5], the fast time constant of recovery from desensitization of heteromers with EK on GluA2 only, co-expressed with GSG1L stood at 80.6 ms and the slow time constant of recovery from desensitization of heteromers with EK on GluA2 only, co-expressed with GSG1L came out at 446 ms. Moreover, the time constant of recovery from desensitization (mono-exponential) of heteromers with EK on GluA1 only, co-expressed with GSG1L in experiment [6] is 338 ms.

Take “germ cell-specific gene 1-like protein (GSG1L) (from UniProt D3ZK93 1-322) (natural protein)”: the stoichiometry N (GSG1L per GluA tetramer) in experiment [7] was 1.74.

(Values after paper PMC10603098.)
